Assay results as given in the RNAGym collection of RNA variant scans (doi:10.1073/pnas.2313332121).
This sample holds only a part of the variants without activity.

B1: TPR 5TU (parent)
chain: GGAUCUUCUCGAUCUAACAAAAAAGACAAAUCUGCCACAAAGCUUGAGAGCAUCUUCGGAUGCAGAGGCGGCAGCCUUCGGUGGCGCGAUAGCGCCAACGUUCUCAACUAUGACACGCAAAACGCGUGCUCCGUUGAAUGGAGUUUAUCAUG

Variants of: B1
Test: polymerase ribozyme fitness, log enrichment relative to wild type (log ratio); higher = more active; in vitro selection for triplet polymerase activity
How it was run: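 Mutant libraries of both subunits of a heterodimeric triplet polymerase ribozyme were PCR-built, transcribed, and selected once in triplicate, with frozen incubation at −7 °C and capture of gel-excised extended constructs on streptavidin beads before RT-PCR. Illumina sequencing of input and output libraries was filtered to genotypes with ≥10 input reads and ≥1 read per output. Fitness is the logarithm of genotype enrichment over wild-type enrichment, using inverse-variance-weighted replicate averages. The logarithm is base 2.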

First: GGAUCUUCUCGAUCUAACGAAAAAGUCAAAUCUGCGACAAAGCUUGAGAGCAUCUUCGGAUGCAGAGGCGGCUGCCUUCGGUGGCGACAUAGCGCCGACGUUCUCAACUAUGACACGCAAAACGCGUGCUCCGUUGAAUGGAGUUUAUCAUG [A19G A26U C36G A73U C87A G88C A97G]
Second: GGAUCUUCUCGAUCUAACCAAAAAGACAAAUCUGCCACAAAGCUUGAGAGCAUCUUCGGAUGCAGAGGCGGCAGCCUUCGGGGGCGCGAUAGCGCCAACGUUCUCAACGAUGACAAGCAAAACGCGUGCUCCGUUGAAUGGAGUUUAUCAUG [A19C U82G U109G C116A]
The “polymerase ribozyme fitness (log ratio)” value of the first is lower: ≤ -4.2 for the first, -0.158 for the second.

GGAUCUUCUCGAUCUAACCAAAAAGACAAAUCUGCCACAAAGCUUGAGAGCAUCUUCGGAUACAGAGGCGGCAGCCUUCGGUGGAGCGAUAGCGCCAACGUUCUCAACUAUGACACGCAAAACGCGUGCUCCGUUGUAUGGAGUUUAUCAAG [A19C G62A C85A A137U U151A] and GGAUCUUCUCGAUCUAACCAAAAAGACAAAUCUGCCACAAAGCUUGAGAGCAUCUUCGGAUGCAGACGCGGCAGCCUUCGGUGGCGCGAUAGCGCCAACGUUCUCAACUAUGACACGCAAAACGCGUGCUCCGUUGAAUGGAGUUUAUCAUG [A19C G67C] cannot be ordered by “polymerase ribozyme fitness (log ratio)” value: ≤ -4.2 for the first, ≤ -4.2 for the second.

Going from GGAUCUUCUCGAUCUAACCAAAAAGACAAAUCUGCCACAAAGCUUGAGAGCAUCUUCGGAGGCAGAGGCGGCAGCCUUCGGUGGCGCGAUAGAGCCAACGUUCUCAACUAUGACACGCAAAACGCGUGCUCCGUUGAAUGGAGUUUAUCAUG [A19C U61G C93A] to GGAUCUUCUCGAUCUAACCAAAAAGACAAAUCUGCCACAAAGCUUGAGAGGAUCGUCGGAUGCAGAGGCGGCAGCCUUCGGUGGCGCGAUAGUGCCAACGUUCUCAACUAUGACACGCAAAACGCCUGCUCCGUUGAAUGGAGUUUAUCAUG [A19C C51G U55G C93U G126C], the “polymerase ribozyme fitness (log ratio)” value rises from -4.05 to -2.57.

First: GGAUCUUCUCGAUCUAACCAAAAAGACAAAUCUGCCACAAAGCUUGAGAGCAUCUUCGGAUGUAGAGGCGGCAGCCUUCGGUGGCGCGAUAGCGCCAACGUUCUCAACUAUGACACGCAGAACGCGUGCUCCGUUGAAUGGAGUAUAUCAUG [A19C C63U A120G U145A]
Second: GGAUCUUCUCGAUCUAACGGAAAAGACAAAUCUGCCACAAAGUUUGCGAGCAUCGUCGGAUGCAGAGGCGGCAGCCUUCGGUGGCGUGAUAGCGCCAACGUUCUUAACUAUGACACGCAAAACGCGUGCUCCGUUGAAUGGAGUGUAUCAUG [A19G A20G C43U A47C U55G C87U C105U U145G]
The “polymerase ribozyme fitness (log ratio)” value of the first is higher: 0.504 for the first, ≤ -4.2 for the second.

First: GGAUCUUCUCGAUCUAACCAAAAAGACAAAUCUGCCACAAAGCUUGAGAGCAUCUACGGAUGCAGAGGCGGCAGCCUUCGGUGGGGCGAUAGCGCCAACGUUCUCAACUAUGACACGCAAAACGCGUGCUCCGUUGAAUGGAGUUUAACAUG [A19C U56A C85G U148A]
Second: GGAUCUUCUCGAUCUAACCAAAAAGACAAAUCUGCCACAAAGCUUGAGAGCAUCUUCGGAUGCAGAGGCGGCAGCCUUCGGUGGCGCGAUAGCGCCAACGUUCUCAACUAUGACACGCAAAACGCGUCCUCCGUUGAAUGGAGUUUAUCAUG [A19C G128C]
The “polymerase ribozyme fitness (log ratio)” value of the first is lower: -3.88 for the first, -3 for the second.

First: GGAUCUUCUCGAUCUAACCAAAAAGACAAAUCUGCCACAAAGCUUGAGAGCAUCGUCGGAUGCAGAGGCGGCAGCCUUCGGUGGCGCGAGAGCGCCAACGUUCUCAACUAUGACACGCAAAACGCGUGCUCCGUUGAAUGGAGUUUAUCAUG [A19C U55G U90G]
Second: GGAUCUUCUCGAUCUAACCAAAAAGACAAAUCUGCCACAAAGCUUGAGAGCAUCUUCGGAUGCAGAGGCGGCAGCCUUCGGUUGCGCGAUAGCGCCAACGUUCUCAACUAUGACACGCAAAACGCGUGCUCCGUUGAAUGGAGUUUAUCAUG [A19C G83U]
The “polymerase ribozyme fitness (log ratio)” value of the first is lower: ≤ -4.2 for the first, 0.141 for the second.

Going from GGAUCUUCUCGAUCUAACGAAAAAGGCAAAUCUGCCACAAAGCUUGAGAGCAUCUUCGGAUGCAGAGGCGGCAGCCUUCGGUGGCGCGAUAGCGCCAACGUUCUCAACUAUGACACGCAAAACGCGUGCUCCGUUGAAUGGAGUUUAUCAUG [A19G A26G] to GGAUCUUCUCGAUCUAACCAAAAAGACAAAUCUGCCACAAAGCUUGAGACCGUCUUCGGAUGCAGAGGCGGCAGCCUUCGGUGGCGCGAUAGCGCCAACGUUCUCAACUAUGACACGCAAAACGCGUGCUCCGUUGAAUGGAGUUUAUCAUG [A19C G50C A52G], the “polymerase ribozyme fitness (log ratio)” value rises from -3.57 to -2.64.

First: GGAUCUUCUCGAUCUAACGAAAAAGACAAAUCUGCCACAAAGCUUGAGAGCAUCUUCGGAUGCAGAGGCGGCAGCCUUCGGUGGCGCGAUAGCGCCAACGUUCUCAACUAUGACACGCAAAACGCGUGCUCCGUUGAAUGGAGUUUAUCAUG [A19G]
Second: GGAUCUUCUCGAUCUAACCAAAAAGACAAAUCUGCCACAAAGCUUGAGAGCAUCUUCGGAUGCAGAGGCGGCAGCCUUCAGUGGCGCGAUAGCGCUAAUGUUCUCAACUAUGACACGCAAAACACGUGCUCCGUUGAAUGGAGUUUAUCAUG [A19C G80A C96U C99U G124A]
The “polymerase ribozyme fitness (log ratio)” value of the first is lower: -0.472 for the first, 0.098 for the second.

Going from GGAUCUUCUCGAUCUAACCAAAAAGACAAAUCUGCCAGAAAGCUUGAGAGCAUCUUCGGAUGCAGAGGCAGCAGCCUUCCGUGGCGCGAUAGCGCCAGCGUUCUCAACUAUGACACGUAAAACGCGUGCUCCGUUGAAUGGAGUUUAUCUUG [A19C C38G G70A G80C A98G C118U A150U] to GGAUCUUCUCGAUCUAACGAAAAAGUCAAAUCUGCCACAAAGCUUGAGAGCAUCUUCGGAUGCAGAGGCGGCAGCCUUCGGUGACGCGAUAGCGCCAACGUUCUCAACUAUGACACGCAAAACGCGUGCUCCGUUGAAUGGAGUUUGUCAUG [A19G A26U G84A A147G], the “polymerase ribozyme fitness (log ratio)” value rises from -3.77 to -3.45.

In the case of GGAUCUUCUCGAUCUAACCAAAAAGACAAAUCUGCCACAAAGCUUGAGAGCAUCUUCGGAUGCAGAGGCGGCAGCCUUCGGUGGCGCGAUAGCGAUAACGUUCUCAACUAUGACACGCAAAACGGGUGCUCCGUUGAAUGGAGUUUAUUAUG [A19C C95A C96U C125G C149U], the “polymerase ribozyme fitness (log ratio)” value is reported as ≤ -4.2.
